According to patent US20200216522A1 (DENALI THERAPEUTICS, published 2020):
* marks the point of attachment. Biotin = O=C1N[C@H]2[C@H](CS[C@H]2CCCCC(=O)*)N1

How the values were obtained:
Peptide_010 = molecular target: T1, Peptide_010 (human); assay: peptide array
T1 peptide: SPLQTPTEDGSEEPG
Procedure: (§1) Chimeric IgG antibodies were diluted to a concentration of 5 μg/mL in 3% bovine serum albumin in Tris-buffered saline (10 mM Tris, pH 7.5, 150 mM NaCl) supplemented with 0.05% Tween®20 (3% BSA-TBST). Diluted antibodies were allowed to bind to peptides printed onto slides for 2 hours at room temperature as described in the PepStar™ user manual (JPT Technologies). Following extensive washing (5×5 minutes with TBST), slides were incubated with secondary antibodies goat anti-human IgG, Alexa Fluor 568 conjugate, 1 μg/mL in 3% BSA-TBST) for 1 hour at room temperature. After extensive washing, (5×5 minutes with TBST, then 5×5 minutes with ultrapure water), slides were dried overnight and imaged using an Opera Phenix™ system in the 568 nm channel. Images were aligned to peptide array definition files using Galviewer software obtained from JPT Technologies and ImageJ software with control human IgG serving as landmarks.
(§2) Full-length human Tau (encoded by the microtubule-associated protein Tau isoform 2 gene (MAPT), amino acid sequence NCBI Reference Sequence No. NP_005901.2, SEQ ID NO: 1, variant designation “2N4R”) was divided into 15 amino acid peptides, offset by 5 amino acids (overlapping by 10 amino acids). Peptides were synthesized and covalently attached to silica slides in triplicate with a spot size of 0.5 mm (obtained from JPT Technologies, Berlin, Germany). Antibodies muIgG were diluted to a concentration of 30 μg/mL in 3% bovine serum albumin in Tris-buffered saline (10 mM Tris, pH 7.5, 150 mM NaCl) supplemented with 0.05% Tween® 20 (3% BSA-TBST). Diluted antibodies were allowed to bind to peptides printed onto slides for 2 hours at room temperature as described in the Pepstar™ user manual (JPT Technologies). Following extensive washing (5×5 min TBST), slides were incubated with secondary antibodies (donkey anti-mouse IgG, Alexafluor 647 conjugate, 5 μg/mL in 3% BSA-TBST) for 1 hour at room temperature. After extensive washing, (5×5 minutes TBST, 5×5 minutes ultrapure water), slides were dried under a stream of nitrogen and imaged on the Opera Phenix in the 647 nm channel. Images were aligned to peptide array definition file using Galviewer software obtained from JPT Technologies and ImageJ software with control mouse IgG serving as landmarks.

Peptide_009 = molecular target: T2, Peptide_009 (human); assay: peptide array
T2 peptide: AGLKESPLQTPTEDG
Procedure: as §1, §2

Peptide_008 = molecular target: T3, Peptide_008 (human); assay: peptide array
T3 peptide: EGDTDAGLKESPLQT
Procedure: as §1, §2

Peptide_002 = molecular target: T4, Peptide_002 (human); assay: peptide array
T4 peptide: QEFEVMEDHAGTYGL
Procedure: as §1, §2

Peptide_001 = molecular target: T5, Peptide_001 (human); assay: peptide array
T5 peptide: MAEPRQEFEVMEDHA
Procedure: as §1, §2

Peptide_024 = molecular target: T6, Peptide_024 (human); assay: peptide array
T6 peptide: DEAAGHVTQARMVSK
Procedure: as §1, §2

Peptide_022 = molecular target: T7, Peptide_022 (human); assay: peptide array
T7 peptide: AGIGDTPSLEDEAAG
Procedure: as §1, §2

Peptide_019 = molecular target: T8, Peptide_019 (human); assay: peptide array
T8 peptide: AQPHTEIPEGTTAEE
Procedure: as §1, §2

Peptide_017 = molecular target: T9, Peptide_017 (human); assay: peptide array
T9 peptide: DEGAPGKQAAAQPHT
Procedure: as §1, §2

Peptide_013 = molecular target: T10, Peptide_013 (human); assay: peptide array
T10 peptide: SETSDAKSTPTAEDV
Procedure: as §1, §2

Peptide_057 = molecular target: T11, Peptide_057 (human); assay: peptide array
T11 peptide: KLDLSNVQSKCGSKD
Procedure: as §1, §2

Peptide_054 = molecular target: T12, Peptide_054 (human); assay: peptide array
T12 peptide: LKHQPGGGKVQIINK
Procedure: as §1, §2

Peptide_053 = molecular target: T13, Peptide_053 (human); assay: peptide array
T13 peptide: GSTENLKHQPGGGKV
Procedure: as §1, §2

Peptide_069 = molecular target: T14, Peptide_069 (human); assay: peptide array
T14 peptide: SEKLDFKDRVQSKIG
Procedure: as §1, §2

Peptide_064 = molecular target: T15, Peptide_064 (human); assay: peptide array
T15 peptide: SKVTSKCGSLGNIHH
Procedure: as §1, §2

Peptide_080 = molecular target: T16, Peptide_080 (human); assay: peptide array
T16 peptide: SPVVSGDTSPRHLSN
Procedure: as §1, §2

Peptide_071 = molecular target: T17, Peptide_071 (human); assay: peptide array
T17 peptide: QSKIGSLDNITHVPG
Procedure: as §1, §2

Peptide_086 = molecular target: T18, Peptide_086 (human); assay: peptide array
T18 peptide: ATLADEVSASLAKQG
Procedure: as §1, §2

Peptide_084 = molecular target: T19, Peptide_084 (human); assay: peptide array
T19 peptide: SIDMVDSPQLATLAD
Procedure: as §1, §2

[1] = molecular target: T20, Tau 251-270 peptide, unphosphorylated (human, N-terminal biotin; C-terminal amide); assay: ELISA on biotinylated peptide
T20 peptide: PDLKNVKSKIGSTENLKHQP
Procedure: (§3) Peptides corresponding to original binding sites on the microarray were synthesized and included all permutations of phospho-serine epitopes. Peptides were synthesized with a biotinylated N-terminus and C-terminal amide. Peptides were purified and confirmed by mass spectrometry. Peptides were then bound to streptavidin-coated plates in half serial dilutions from 250 ng/well of each peptide. Antibody binding was tested at 1 μg/mL in 5% BSA TBST, followed by washing and detection with goat anti-human HRP (as described above in the “Chimeric IgG ELISA” section).

[2] = molecular target: T21, Tau 346-360 peptide, unphosphorylated (human, SMILES …); assay: ELISA on biotinylated peptide
T21 peptide: Biotin-FKDRVQSKIGSLDNI-NH2
Procedure: as §3

[3] = molecular target: T22, full-length human Tau (Tau441; 2N4R), recombinant (human, UniProt P10636 1-758); assay: Octet binning on biotin-r-Tau; competitor 1A5
T22 construct: made in E. coli, His6-Smt3 tag removed; biotinylated through amines for Octet and phage work; also called r-Tau; recombinant Tau
Procedure: (§4) Epitope binning assays were performed using a FortéBio® Octet® RED384 instrument using FortéBio® Streptavidin biosensors. Biotinylated recombinant Tau was diluted to a concentration of 2 μg/mL in kinetic buffer (obtained from FortéBio®) and captured onto individual biosensors for 1 minute. A baseline was then established for 1 minute in kinetic buffer. The loaded biosensors were dipped into 10 μg/mL of the first chimeric IgG antibody until signal saturation, followed by dipping into 1 μg/mL of a second antibody. The binding for the second antibody was normalized to its total binding in the absence of the first antibody.

[4] = molecular target: T22, full-length human Tau (Tau441; 2N4R), …; assay: Octet binning on biotin-r-Tau; competitor 1C7
Procedure: as §4

[5] = molecular target: T22, full-length human Tau (Tau441; 2N4R), …; assay: Octet binning on biotin-r-Tau; row antibody Ab107 (anti-BACE1 control)
Procedure: as §4

T22 sequence (P10636 other isoform, or with tags, fused parts or gaps limits assumed): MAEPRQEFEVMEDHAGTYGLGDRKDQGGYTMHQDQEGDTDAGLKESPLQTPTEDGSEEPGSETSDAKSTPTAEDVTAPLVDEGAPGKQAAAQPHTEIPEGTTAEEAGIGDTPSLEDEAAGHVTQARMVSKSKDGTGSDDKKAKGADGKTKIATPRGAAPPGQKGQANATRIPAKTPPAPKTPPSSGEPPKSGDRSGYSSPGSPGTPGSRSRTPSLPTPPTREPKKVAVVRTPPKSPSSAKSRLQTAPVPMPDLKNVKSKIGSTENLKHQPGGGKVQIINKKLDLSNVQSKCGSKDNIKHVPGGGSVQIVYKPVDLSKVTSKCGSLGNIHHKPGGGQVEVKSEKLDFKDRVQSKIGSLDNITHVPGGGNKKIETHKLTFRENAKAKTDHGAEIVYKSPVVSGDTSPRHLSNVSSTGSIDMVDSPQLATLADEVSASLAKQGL

B1: chimeric IgG clone 1D10 (antibody, V domains shown)
VH: EVQLQQSGAELVRPGASVKLSCTASGFNIKDSLMHWMKQRPEQGLEWIGWIDPEDGETKYAPKFQDKATLTADTSSNAAYLQLSSLTSEDTAIYYCVRGDWDGGYWGQGTTLTVSS
VL: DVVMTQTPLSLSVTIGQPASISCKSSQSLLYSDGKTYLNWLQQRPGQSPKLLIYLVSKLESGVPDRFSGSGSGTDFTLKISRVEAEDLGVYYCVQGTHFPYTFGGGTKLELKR
notes: mouse-human chimeric IgG from HEK293
B1: no binding (tested: 5 ug/mL) (Peptide_010); no binding (tested: 5 ug/mL) (Peptide_009); no binding (tested: 5 ug/mL) (Peptide_008). B1: no binding (tested: 5 ug/mL) (Peptide_002); no binding (tested: 5 ug/mL) (Peptide_001); no binding (tested: 5 ug/mL) (Peptide_024). B1: no binding (tested: 5 ug/mL) (Peptide_022); no binding (tested: 5 ug/mL) (Peptide_019); no binding (tested: 5 ug/mL) (Peptide_017). B1: no binding (tested: 5 ug/mL) (Peptide_013); no binding (tested: 5 ug/mL) (Peptide_057); no binding (tested: 5 ug/mL) (Peptide_054). B1: no binding (tested: 5 ug/mL) (Peptide_053); no binding (tested: 5 ug/mL) (Peptide_069); no binding (tested: 5 ug/mL) (Peptide_064). B1: no binding (tested: 5 ug/mL) (Peptide_080); no binding (tested: 5 ug/mL) (Peptide_071); no binding (tested: 5 ug/mL) (Peptide_086). B1: no binding (tested: 5 ug/mL) (Peptide_084); binds [1]; binds [2]. For the same binder, the “normalized binding of second antibody” value [3] was -0.07, the “normalized binding of second antibody” value [4] was 0.88 and the “normalized binding of second antibody” value [5] was 1.
